Source: the DeepSol protein solubility set

assay: soluble on expression in E. coli; label from the status in PepcDB or PDB records

Sequence	soluble on expression in E. coli
MGSDKIHHHHHHMNADDIRAMIQPAQVHRDVYISDAVYRLEMRHLFTNAWIFVGHDSQTPNKGDYITTQVGDQPVIMVRHTDGEVKVLYNRCPHKGTKIAIDRAGNTGKFFRCPYHAWSFKTDGCLLAIPLKKGYEGTGLSESQNGKGMQAVGAVYNYRGFVFARLAEDGIGFDEFFGGSLSSIDNMVDRAPEGRVEISGPPLRYMHKCNWKMLVENQTDTCHPMVAHESSAGTAVKIYEQMGNPEPRPPAMQIIAPFMSPYEFFEDMGIRTWPNGHGHTGVNMSIHSNYDAIPGYFEAMIESHGEERAKAILDESRHNTVYFPNVMVKAPLTQLRNFIPLGADRTLAESYVYRLVGAPEQLTAMSAMYNRMINAPTSIVGHDDLEMYERAQEGLHAEGMQWVDIRRLHTGPENFETEAVENGTTERQMRNQFHAWAKFMTMSMEDAPGVAAQ	not soluble
MPMNNFLDEFNLFDSIITMMKNDPCCVEDYEPIVENLNRIFQRTFNDEEHRKSMANSQLFWERLRDTLEAMLLPASLNENSSIPYTRTVRGLILMMRNLAAENQEIPQKLLLQNLVIRGFLHATSEYVVDTPLIKHLYIACLTCLFNIQQNYSTVDMTTFPALLQFLQYPYGIKLEDGEEEEHFWLPYLFLFKTYLNNDEFSNEFFRDNDTPQKDYYCVRDRIFFDIVTAKFIQDQENSFLIEKGRNYLDDSKLEITSIDLSVLECISKSLTTASFGKYLNGLEERQPGKFTTLLQILQLVVTSKEDWNTYELTAIMSWCYPILQRLACKDIPAFFNKSCNDYAPSVAIQLHSTLLSCLDIISDLCKFNHVRKFLISYDSVKILVSLLDTFQKNLLRINFLKGNGDTVNEIKITDHEGNKIEDRLLIFNRVNTNESFIRADNFPHCKLVIIEILASLVYAHPEIQDQIRELGGLALILSNCVIDDNDPFIKERSIVCLKFLLKNNAKNQEYVKKMEAQDVVQDDALSKAGFEISVEKGGKVRLVSKEEDPGNENSEIISIDED	not soluble
MSAATKKRYITNKVGSEFYELVDEDIIAQVRQSRGNNLHEVLDQNGDSYVVSMPTKFRKSVWLRRDQFVVVRPITEGDKVKGEIEYILDQDNVLYIRELGKWPTCFEENALKMTREAKRGQTSDKMIDDDMLPPSESEEEDESEGEETYDEDDVDDEEEEEFDTYNPNRMQAPSK	not soluble
MAPSGGQEAQICDSETFGDSDFVVVANRLPVDLERLPDGSTTWKRSPGGLVTALEPVLRRRRGAWVGWPGVNDDGAEPDLHVLDGPIIQDELELHPVRLSTTDIAQYYEGFSNATLWPLYHDVIVKPLYHREWWDRYVDVNQRFAEAASRAAAHGATVWVQDYQLQLVPKMLRMLRPDLTIGFFLHIPFPPVELFMQMPWRTEIIQGLLGADLVGFHLPGGAQNFLILSRRLVGTDTSRGTVGVRSRFGAAVLGSRTIRVGAFPISVDSGALDHAARDRNIRRRAREIRTELGNPRKILLGVDRLDYTKGIDVRLKAFSELLAEGRVKRDDTVVVQLATPSRERVESYQTLRNDIERQVGHINGEYGEVGHPVVHYLHRPAPRDELIAFFVASDVMLVTPLRDGMNLVAKEYVACRSDLGGALVLSEFTGAAAELRHAYLVNPHDLEGVKDGIEEALNQTEEAGRRRMRSLRRQVLAHDVDRWAQSFLDALAGAHPRGQG	not soluble
MAEHEQVNWPYVNTKLKRDPAVEAQIEKLLAKMTIEQKVAQMIQPEIGYLTVEQMRKYGFGSYLNGGNTAPYGNKRADQATWLKYADEMYLAAMDSTLDGIAIPTVWGTDAMHGHSNVYGATLFPHNIGLGAARDTDLIKRIGQATAKEVAATGIEWSFAPTVAVVRDDRWGRTYESYSEDPDLVKRYAGEMVTGIQGDVGADFLKGSNRIATAKHFVGDGGTERGVDRGNTLIDEKGLRDIHSAGYFSAINQGVQSVMASFNSWNGKRVHGDKHLLTDVLKNQLGFDGFVVSDWNAHKFVEGCDLEQCAQAINAGVDVIMVPEHFEAFYHNTVKQVKAGVIAESRINDAVRRFLRAKIRWGVFTKSKPSARPESQHPQWLGAAEHRTLAREAVRKSLVLLKNNESILPIKASSRILVAGKGANAINMQAGGWSVSWQGTDNTNSDFPNATSIFSGLQSQVTKAGGKITLSESGEYTSKPDVAIVVIGEEPYAEWFGDIELLEFQHETKHALALLKQLKADNIPVVTVFLSGRPLWVNKELNASDAFVAAWLPGSEGEGVADVLLTNKQGKTQFDFTGKLSFSWPKYDDQFTLNLNDADYDPLFAYGYGLTYQDNINVPVLSEKTSPKKTVNSDSHPLFVRSLAKNMTWQLADTSTQKVLASGASATSGDKQSLLMQSVNLSYQEDGRGFNWRAQAALSLSYLEPTPLDSKFSTGYLELKMRIDKAPEQGANLQVMCSESNCLRDIDFSSFSQLMADKSWHTLAIPLHCDDSDQAEQPITDALRITSQNLSLAIADVALTIKPSDDSISLTCAKLEHHHHHH	soluble
DITVYNGQHKEAATAVAKAFEQETGIKVTLNSGKSEQLAGQLKEEGDKTPADVFYTELTATFADLSEAGLLAPISEQTIQQTAQKGVPLAPKKDWIALSGRSRVVVYDHTKLSEKDMEKSVLDYATPKWKGKIGYVSTSGAFLEQVVALSKMKGDKVALNWLKGLKENGKLYAKNSVALQAVENGEVPAALINNYYWYNLAKEKGVENLKSRLYFVRHQDPGALVSYSGAAVLKASKNQAEAQKFVDFLASKKGQEALVAARAEYPLRADVVSPFNLEPYEKLEAPVVSATTAQDKEHAIKLIEEAGLK	soluble
MGHHHHHHSHSMGVRSMATFVKTADVSILIDPGVSLAPKRYRLPPHRIEIERMNQKWEEIKEMMKKAEVAIITHYHYDHHDPNEVEIFSGKKLLLKHPTEKINRSQKGRAAYFLEQLKSVDVEIDYCDGKSYEFGNTVVELSKPVFHGADSRLGFVVEVYVEDGKSSFLFSSDVEGPNNEEQLAFMLEKSAEVVFIDGPMTYMLGYRFSQKSFESSVENLKRLIAEDVKTLVLDH	soluble
MGSDKIHHHHHHMRYSPESLLAFITTVDAGSFSAAARRLHKSQSTISAAIANLEADLGLTLFDRAGHQPVLTLAGRKVLSHVQAILSASEELDELAIRLADHIEPRLTFVLSDIWQATHYEPVIQRFAHNFPDIEFECLVAEGDDVIDLLQMDRAHVGLLRAQTDYPPDIAAARLQVKTEMAVFVSVAHPLATEKTVTRSQLATVRQLYLNTYKRSDRLQPEGIVWSAPSYLMLLEMAQQGHGWSSLPRWLVAQYDRQKLVELPVSGWPQWIDVDVVWSKPHPPGPAGLWMIDNLLAQQESTPP	not soluble
MSDSSQLHKVAQRANRMLNVLTEQVQLQKDELHANEFYQVYAKAALAKLPLLTRANVDYAVSEMEEKGYVFDKRPAGSSMKYAMSIQNIIDIYEHRGVPKYRDRYSEAYVIFISNLKGGVSKTVSTVSLAHAMRAHPHLLMEDLRILVIDLDPQSSATMFLSHKHSIGIVNATSAQAMLQNVSREELLEEFIVPSVVPGVDVMPASIDDAFIASDWRELCNEHLPGQNIHAVLKENVIDKLKSDYDFILVDSGPHLDAFLKNALASANILFTPLPPATVDFHSSLKYVARLPELVKLISDEGCECQLATNIGFMSKLSNKADHKYCHSLAKEVFGGDMLDVFLPRLDGFERCGESFDTVISANPATYVGSADALKNARIAAEDFAKAVFDRIEFIRSN	soluble
MKKSLVVCALSAAVLLSGCETVNTTSGGVVGVDRKQSMFSMVSSAEVNQSYAQSYQQTLGEASSQGVLDKTSANAKRLQVIANRLIAQAPTFRPDCAQWKWEVNLIKSDELNANCGPGGKIIFYSGLIEKLKLTDDEIAAVMGHEIAHALREHGREAMSKQYAVGAGKQIATLFGVPQETVALGDNGVNLLMTLPNSRENENEADLIGLELAARAGYNPNAAISLWNKMGQAAGGSAPPEFMSTHPASTSRIASLQAAIPKVMPLYQAAKKSLEHHHHHH	not soluble
SDHFNAPVGMLEAITSVEGVDRVVPTIEMTGVAKTDSAFAGILLMGDNSLRTRNPLFGQTVSGNYPSFSSADTVPNPILLPQVTADKLHLKIGDKLRIYFAGTERMRLRAFTVAGVYSGGKMDMPVGLVSADVLRRVGGLGADDVSRLLIYASDPDETDLIVTRVFDRLSETLYVGEQRLTINTATELNPMIMDWLSALDTN	not soluble
MVRVVRHSRGTCNRGLYEVRELARNRTLQQWGVEDSAELYGIRNWGAGYFDVAQNGDVVVYPFGHNRGPAVSIPEIIGGMRERGYDMPVLLRIENILDSQITSLHTSFRNAIGSLGYKGEYRGIFPIKVNQQQQVVEKIAQFGSHYHHGLEVGSKAELIAAVSQLRDREACLVCNGYKDEEFIDLGLHAVRLGFMCIFVLEMPGELDLILERGEALGVKPIIGVRAKLSVKAGGHWTDSGGERSTFGLTTSQIVDVVDRLKEKGMLDCFKLLHYHLGSQVPNIRDIRAAVMEACRIYAGLVQEGAAMGFLDLGGGLAVDYDGSHTNFVSSRNYTLDEYCADIVEAVMTTLDEQNIPHPHIVTESGRATVAYYSMLLFNILDVSRVEIGNLPDALPEDTPEPVRNMREVLAGMTLRNLQECYNDALYYRDAVRQLFLTGQVTLRQRTLSERLFWAIMKRIAQEKQKLKHVPKDLAEIDVALADIYYGNFSVFQSLPDSWAIDQLFPVMPVHRLQELPSRQGILSDITCDSDGRIDHFIDPQGMKGTLDLHPLRDGEEYYLGVFLVGAYQETLGDLHNLLGDTNVVSVRVHEDGTYEFVREIRGDSVADILSYVEYDPRRIYEDIRELAERAVREGRITASDRFRVMQAYEDGLRGYTYFERLEHHHHHH	not soluble
MGSDKIHHHHHHMITYFELKNFRSFSNITLDLRKAYGKPKKVVFIYGENGSGKSNLMSSFLFLLQTLNTFKNQVELKDMPEYKSNLFESIKDDKIRHQLLQQILHMQFITLSNLIDEYKMLGNEKNMSTKFGFRIEESDGSYFMEFSKDKIIKEELRYQINEREGTVFSISKNQITLSPTVFLDLDYKKELQDNIEKYWGKHTFMAILCNEIETKNSNYIKAKINKNLLNVIWEMRGLSVWCKECHGETARISIPLKFMRQLDEGSVKDQNNKELKLCETALNTFFTQLYSDIKAVHYVFTPNENDYSYELCFKKLIDGKLIDIPISLESTGTRKLLEIFPMLFGSVAGTPVFVDEIDSGIHDVLMKNLLERLLESIEGQLIATTHNTLLMESLPTENTYIIRVNATGNKSIDCVANYRQRTQKTNSMRNKYLRGDYDGIPYTGYFDFQELVEDVLDNIPSSDNEDGDEA	not soluble
MAHHHHHHMMSKPHHATLESIKYTPGSLRLLDQRKLPLETVFDDVLTVEDIWSAIKEMRVRGAPAIAVSAALGIAVATQRKAANGELKSGREVQTFLLTSCDFVMTSRPTAVNLFNCLRDLKAQVDKLDPTKAAAEVAQAFVELAEAVYTNDVAFNEGIMRHGAAHILAAAKAEGRDKVSILTICNTGALATSRYGTALGVVRQLFYDGKLERVYACETRPWNQGARLTVYECVQEDIPCTLICDGAASSLMLNRKIDAVVVGADRICQNGDTANKIGTYNLAVSAKFHGVKLYVAAPTTTLDVKTASGNHVEIEEREPTEITTNLVTKQRVVADGPHLSIWNPVFDITPSELITGGIITEKGVQAPAASAPYYDIASIIAQA	soluble
MGLKDQAVTWRRYFHQFPELSDKEFKTTQKIKDILTEHHIRILDLPLATGLVAEVGQGLSCIAVRADIDALPIQELVEQDFKSENEGVMHACGHDIHMASILATAVKLKEIEGTLTGRVKFIFQSAEELGHGAFKIIETHALKDVQAVLGFHNDPSRSVGTFAIKTGAITSAVDRFEFHIKGVGGHAAKPEQCNDPVIVLAQLINSIQSIVSRNLSAFDEAVVTIGQISCGNTWNVIADHAYVQGTVRSFDPVVRKLVETRLQDIADGLAQAYNMKINLNYTHLPGAVMNDEALTHKAIAVAQHVGYKVEMMEQPLTIGEDFSGYSQHFPSVFALIGSHSEYDLHHPQYKPDERILEKVPEYFVEFVKRLLHE	not soluble
